Experiment [1] has as its target recombinant Fasciola hepatica helminth defence molecule-1 (FhHDM-1) (Fasciola hepatica). Briefly: AUC; sedimentation velocity, 0.1 mg/ml, 20°C, 10 mM Tris, 50 mM NaF, pH 7.3, 40,000 rpm; c(s) and c(M) distributions (SEDFIT).
Experiment [2] shares this target. Description: AUC; sedimentation velocity, 0.1 mg/ml, 20°C, 10 mM sodium citrate, 50 mM NaF, pH 4.5, 40,000 rpm; c(s) and c(M) distributions (SEDFIT).

In general, stoichiometry N refers to the number of molecules, sites or subunits per partner or assembly.

Where “and” joins values, the source holds several entries; their conditions need not be identical. Identical values can stand only once.

Regarding “recombinant Fasciola hepatica helminth defence molecule-1 (FhHDM-1) (natural protein)”, the stoichiometry N was 3 in experiment [1]; 2 and 5 in experiment [2].

For the origin of these results see PMC3093369.
